Test results reported in the supplement of paper PMC9170038.

Test system: MS2 coat protein
Experiment: apparent KD of MS2 coat protein; higher = weaker reporter binding
Settings: Eterna round: R107
Protocol: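 RNA-MaP round R107: designed RNA switches with theophylline, tryptophan, arginine or FMN aptamers are transcribed on-chip within common flanks. They are titrated with SNAP-549-labelled MS2 coat protein in RNA-MaP buffer (100 mM Tris pH 7.5, 80 mM KCl, 4 mM MgCl2), without ligand or with the indicated ligand. Median apparent KD per design.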

[1] = input ligand: theophylline 20 uM
[2] = input ligand: theophylline 2 mM
[3] = input ligand: tryptophan 2.4 mM

| Sequence | apparent KD of MS2 coat protein (input ligand: arginine 13.2 mM) | apparent KD of MS2 coat protein [1] | apparent KD of MS2 coat protein [2] | apparent KD of MS2 coat protein (input ligand: none) | apparent KD of MS2 coat protein [3] |
| --- | --- | --- | --- | --- | --- |
| GGUAUGUAUUCGGAAACGAAUGCAUACCAACGAGGACCGGUACGGCCGCCACUCGGCGGCGAUCAACAUGAGGAUCACCCAUGUA [Ex Tryptophan A 3] | 26.2 nM | 43.7 nM | 42.4 nM | – | – |
| GGAGUCGUCACGGCCGCCACUGCGGUGGUGUGACAUGAGGAUCACCCAUGUUGUCAUGCGGCCCUUAGGACCGGGUGUCGGUUCC [#1 Exclusion - Tryptophan B Attempt #23 (HarryS)] | 57.1 nM | 85.1 nM | 78.3 nM | – | – |
| UUGUUGUUUGGAAGGAGCGUGGAUGAGUUAGAACAUGAGGAUCACCCAUGUUGGAUGAUACCACAGGUAGGUCGCCGGGUGGUGG [11.Z] | 229 nM | 48.8 nM | 24.5 nM | 16.6 nM | 21.4 nM |
| GAUAACAUGAGGAUCACCCAUGUGGCGUCGCGAGGACCGGUACGGCCGCCACUCGGCAGUUCAACUCGAAUAUAGUGAUCGAAGU [theeternabot_sameState_MS2_Trp_A_16] | 47.6 nM | 182 nM | 223 nM | – | – |
| UACAUAUGCCGAAGGAGCGCGAGAUGCAAAGCAUCAUUCCUCACAUGAGGAUCACCCAUGUCGCAGGUAGGUCGCGGCAUAUGUU [ArgBX] | 46.7 nM | 45.1 nM | 40.3 nM | 32.5 nM | 32.4 nM |
| ACUCGGUGUUUGUUGCUCCGAGUGUAUGAUACCAGUUAGUUUUAUGGCCCUUGGCAGCAUAGGACAUGAGGAUCACCCAUGUGUU [#02 SameState-TheophyllineA] | 27.3 nM | 41.1 nM | – | – | 34.9 nM |
| CGGUCGGUCGGCCGGUGAUUAUGGGAUGAAGGAGCGUGGGAAGCUACAGGUAGGUCGCAUCCGAACCAUGAGGAUCACCCAUGGU [SSArg A #23Alt-Ms2 Mod] | 23.2 nM | 26.8 nM | 39.2 nM | 25.1 nM | 21.7 nM |
| GCAGUGGGUUAUAAGUAAUAGAAUUCUGAAGGAGCGUGAUGAAACACAGGUAGGUCGCAGGAACAUGAGGAUCACCCAUGUACGG [Same State Arginine A GF20] | 61.4 nM | 51.6 nM | 37.6 nM | 58.7 nM | 50.3 nM |
| UAACAUGAGGAUCACCCAUGUUUGGAGAAACGAGGACCGGUACGGCCGCCACUCGAGGAGUGGAUGAGAAGUGGGAUAGAGUGAU [Same State Trp A GF6] | 19.2 nM | 19.6 nM | 17.5 nM | 19.6 nM | 15.1 nM |
| CGCAACCAACAUGAGGAUCACCCAUGUGAAGGAGCGCCGAAUAAGGCAGGUAGGUCGCACAUGAAUAAAUCAUGAAGGAAGCGAA [XArg-A 12 NuPack] | 20.5 nM | 43.8 nM | 51.2 nM | 36.8 nM | 31.5 nM |
| UGUAUGGACUGAAGGAGCGGGUAAUAAACUUGAGGAUCACCCAGGUAAUAGGCGAAAGCCACCCAGGUAGGUCGCAGUCCAUACU | 32.7 nM | 38.9 nM | 23 nM | 28.5 nM | 25.6 nM |
| ACAUGAGGAUCACCCAUGUAGUGGCACGAUACCAGCUGAUCCCGUGGCCCUUGGCAGCGUCCGGUGUGGUCUGCCGGGAUGGAGC [WBWMULLIN] | 25 nM | 40.7 nM | – | – | 24.8 nM |
| CUCCCGUGAGCGGCCGCCACUGGAGGCCUCGCGCGACAUGAGGAUCACCCAUGUUGGCCCGGCCUCAGGACCGGGUUCGCGCGAG [Same State - Tryptophan B Attempt #5 (HarryS)] | 7.94 nM | 12.4 nM | 9.89 nM | 9.67 nM | 7.41 nM |
| CUGCUACAUGAGGAUCACCCAUGUGGAGAUACCAGCCUGAACGAUGGCCCUUGGCAGCUCUUAGCUGGUGAUCAUAUAUUUCAGA [Zazaat] | 25.3 nM | 68.2 nM | – | – | 28.2 nM |
| UUUUAAAGCAUGGCGUAUCGGAAAACCGAUACCAGUACAGAAAUGUACCCUUGGCAGCGGAAUUUUACAUGAGGAUCACCCAUGU [Ex Theophylline A 1] | 14.9 nM | 19.7 nM | – | – | 12.7 nM |
| UGUAUGUGAUCUGAUACCAGAGUUGAUAAUCUGAGGAUCACCCUGGUAAGGCGAAAGCCGCUCCCUUGGCAGCAGAUCGCAUACU | 526 nM | 969 nM | 244 nM | 946 nM | 884 nM |
| AGCGAUAUGCAUGAUACCAGCUACAUGAGGAUCACCCAUGUGCGUCAGUAAUGACUGUGUAGCCCUUGGCAGCAUAGAGCAUGUA [Exclusion - Theophylline B (Freestyle 12)] | 29.5 nM | 47.2 nM | – | – | 34.7 nM |
| AAUAACAUGAGGAUCACCCAUGUAAGUGGGCGAGGACCGGUACGGCCGCCACUCGGAUGAUGUUGACGAAAAGUCAGCAUCAUCA [#OpenEnded 2 #GuTurnoff #Tail] | 25.9 nM | 31.3 nM | 34.1 nM | 24.7 nM | 55.1 nM |
| UUGGAUGAAGGAGUGAAAAGCAACUCAGAUACCAGUCUGAGUAAUGACCCUUGGCAGCUGAGAACAUGAGGAUCACCCAUGUGAC [theeternabot_exclusion_MS2_Theo_A_34] | 11.7 nM | 15.5 nM | – | – | 17.1 nM |

| Sequence | apparent KD of MS2 coat protein (input ligand: arginine 13.2 mM) | apparent KD of MS2 coat protein [1] | apparent KD of MS2 coat protein [2] | apparent KD of MS2 coat protein (input ligand: none) | apparent KD of MS2 coat protein [3] |
| --- | --- | --- | --- | --- | --- |
| AGACAUGAGGAUCACCCAUGUAGUAUGGAUACCAGAUCCAGAUUUAUCCCUUGGCAGCUGUGGUACAGCGUUGCAACGCUCCUAG [Exclusion - Theophylline A (Freestyle 14)] | 30.4 nM | 38.7 nM | – | – | 31.8 nM |
| GUUGCACAUGAGGAUCACCCAUGUUUGGAUACCAGUCUCUGUAAUGACCCUUGGCAGCCACCAUAGACGCUUGAGUAGAGCCUGA [theeternabot_sameState_MS2_Theo_A_21] | 14.2 nM | 19.4 nM | – | – | 15.5 nM |
| AGAUCUUUCGAAAGAAGGAUCUUGUCUGAUACCAGAGACGAAAGUCUCCCUUGGCAGCAGUGCCAACAUGAGGAUCACCCAUGUA [Theophylline A 12] | 22 nM | 24.7 nM | – | – | 21.3 nM |
| AAAGAUCGGAAACGAUCGGCGGCUUGGGCGCGAGGACCGGUACGGCCGCCACUCGGGAAACAUGAGGAUCACCCAUGUUGCUUCU [ETA NP+V+V2 #16] | 10 nM | 12.5 nM | 11.9 nM | – | – |
| AGAGUCUAGUCGGCCGCCACUCAUGUCCAAUGGACAUGAGGAUCACCCAUGUACCGAAGGUACAUGAGGACCGGGACUGGACUCA [Omei Tryp B SS C v6] | 43.6 nM | 496 nM | 330 nM | – | – |
| AGCCACUCGAGUGAUCCUCACGAGUGGCUACGAGGACCGGUACGGCCGCCACUCGAAUUAACAUGAGGAUCACCCAUGUAAUCUC [Brourdmod06] | 38.7 nM | 238 nM | 344 nM | – | – |
| CUCUGAGUGAUCGCUCACUCAGAGGCGGAUACCAGCGAGGUCCAUCGCCCUUGGCAGCCGAACAUGAGGAUCACCCAUGUCGGUA [#1 Same State - Theophylline A Attempt #20 (HarryS)] | 8.77 nM | 13.7 nM | 12.9 nM | 10.3 nM | 8.98 nM |
| ACAUGAGGAUCACCCAUGUAUUACCGGGAAGGAGCGCGUAAGGACGCAGGUAGGUCGCUCGGCGUCGUGCUGUAAAGCACGACGA [#1 Same State - Arginine A Attempt #24 (HarryS)] | 67.7 nM | 18.6 nM | 14.9 nM | 14.9 nM | 15.3 nM |
| UUAUUUAUAGGGUAUAUCAGAUUAACUGAAGGAGCGUGGUAAUUCACAGGUAGGUCGCAGAUGGAACAUGAGGAUCACCCAUGUU [JR_ExcArginiA_Sub015] | 18.2 nM | 28.5 nM | 22.2 nM | 19.2 nM | 20.8 nM |
| GUAUGGAAACAUACUAGGGUAUCAUGAGAUACCAGUACAGAAAUGUACCCUUGGCAGCUCAAGCAUACAUGAGGAUCACCCAUGU [Ex Theophylline A 7] | 15 nM | 22.7 nM | – | – | 15.8 nM |
| CUAUAUAUAAGAAGGAGCGUCGAAAAUGGGUAAACAUGAGGAUCACCCAUGUAAAGGGAACGACAGGUAGGUCGCUUAUAUAUAG [AstromonsSSArgB#5] | 151 nM | 169 nM | 184 nM | 191 nM | 206 nM |
| ACACGUGACAAGGAUACCAGCCUGGCUAGUUCAAACCCUCACAUGAGGAUCACCCAUGUAGGCCCUUGGCAGCCUAUAGUCUAAG [theeternabot_exclusion_MS2_Theo_B_38] | 27.7 nM | 43.7 nM | – | – | 29.9 nM |
| AUAUGAAAGAGUGAUACCAGACUACAUGAGGAUCACCCAUGUGACAUUUAAAUAUCAUUUGUCCCUUGGCAGCACAUUAAGUACA [JR_Nu_ExcTheophyB_Sub021] | 35.7 nM | 46.9 nM | – | – | 43 nM |
| UCUACAUGAGGAUCACCCAUGUGCCAUGAUACCAGACAUGAAAAUGUCCCUUGGCAGCAUGGGUAGCGCAUCCGAAAGGAUGCGU [#06 SameState-TheophyllineA] | 42.4 nM | 155 nM | – | – | 33.4 nM |
| UGGUACAUGAGGAUCACCCAUGUUCCAGAUACCAGAUACCCGGUUAUCCCUUGGCAGCUGGUGGUACAUGAGGAUCACCCAUGUG [Exclusion Theophylline A GF15] | 32.9 nM | 58.9 nM | – | – | 44 nM |
| ACACCGAAAGGUGCAUUUUCCUUUUCAGAUACCAGACUUUACGUUGUCCCUUGGCAGCUGUAUCACAUGAGGAUCACCCAUGUUG [JR_SSTheophyA_Sub012] | 16 nM | 21.4 nM | – | – | 15.9 nM |
| GGUGGCGUGACGGAUACCAGCCACCACCGUUAGACCACAUGAGGAUCACCCAUGUUGGGUGGCCCUUGGCAGCUGUCGUGCGGCG [#1 Same State - Theophylline B Attempt #18 (HarryS)] | 140 nM | 250 nM | 113 nM | 377 nM | 337 nM |
| AAUUGCGUUGGUGAGGCGGUUAAUGGCGAUACCAGCGUGGAAACACGCCCUUGGCAGCGCCAAAACAUGAGGAUCACCCAUGUUA [Liberec] | 50.7 nM | 149 nM | – | – | 82.5 nM |
